In the supplement of paper PMC10567573:

B1: NCK2 (parent)
chain: YVERKNSLKKGSLVKNLKDTLGLG
B2: TMEM106C (parent)
chain: TVPEILVHNIVIFMRTSVKISYIG

Variants of: B1
Assay: protein stability index of a GFP-peptide fusion (GPS, HEK-293T) (PSI 1-6); higher = more stable
Conditions: c terminus: a fixed tail appended
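Also: lentivirally expressed fusions sorted by FACS into six bins by GFP to DsRed ratio, PSI derived from sequencing read proportions per bin multiplied by bin number.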

Protein stability index: each site, then its substitutions
D19: V 1.78, N 2.84, H 1.47, Y 1.49, M 2.6, K 1.91, I 2.01, W 2.35, G 1.92, Q 2.21, L 1.4, T 1.83, S 2.16, P 1.95
T20: L 2.07, P 2.21, E 2.17, Y 1.88, I 3.27, V 1.97, R 1.97, M 2, Q 2.64, S 2.66, C 1.82, N 2.62, A 2.33, G 2.45, K 2.37, D 2.3, F 1.75, H 1.75
L21: H 2.3, A 2.4, D 2.81, F 2.18, S 2.51, R 1.98, P 2.39, C 2.71, Y 2.41, M 2.64, G 2.49, N 2.33, I 2.42, Q 2.3, W 2.12, T 2.44, E 2.74, K 2.32, V 2.25
G22: L 1.51, R 1.97, S 2.13, N 2.46, C 2.01, M 2.23, I 1.9, D 2.21, H 2.01, K 2.09, E 2.34, V 1.97, W 2.56, P 2.44, Q 2.31, Y 2.33, F 2.86, T 2.37
G24: W 1.97, H 2.43, A 2.36, I 1.8, L 1.28, F 1.48, E 3.21, D 2.8, V 1.67, M 2.09, K 2.13, Q 2.59, C 2.2, P 2.28, S 2.58, N 1.98, R 2.19, Y 1.67, T 2.36
L23: W 2.44, N 2.9, R 2.89, C 2.53, K 2.71, F 2.52, H 2.02, T 2.64, M 2.7, I 2.37, S 3.21, Q 2.33, Y 1.94, G 2.94, A 2.96, V 2.57, D 2.76, E 2.86, P 2.97

Variants of: B2
Assay: as above
Conditions: c terminus: a fixed tail appended

Protein stability index of substitutions, site by site:
I12: V 2.64, F 2.8, S 2.88, T 2.07, D 3.93, L 3.84, P 2.19, R 3.25, K 2.81, E 3.69, H 3.33, G 3.97, M 2.29, C 2.8, W 2.08, Q 2.11, Y 3.05, N 3.08
V2: L 3.28, S 2.63, D 2.5, F 2.95, N 2.01, K 2.81, E 2.47, C 2.31, H 2.77, W 2, P 3.94, G 2.98, I 2.67, Y 3.53
H8: K 3.34, D 3.5, I 2.58, G 2.27, P 3.19, T 2.41, F 3.98, S 3.74, Q 2.63, N 3.21, R 2.67, L 3.28, V 2.81
M14: Y 2.6, G 3.13, S 4.03, D 3.11, I 2.85, A 3.73, P 3.45, Q 3.58, C 2.99, L 3.05, E 3.79, W 2.87, F 2.97, K 3.19, V 2.68, N 3.25, H 2.91, R 2.21
T1: I 4.36, W 2.7, D 1.51, L 2.03, S 3.42, M 3.02, E 2.4
R15: G 3.23, I 4.22, D 2.57, C 2.91, H 2.94, E 1.63, F 3.57, A 2.33
E4: K 2.94, Q 2.61, N 2.99, T 2.5, Y 2.81, H 2.29, I 2.02, S 2.88, D 3.56, G 3.29, F 2.67, M 4.55, V 3.21, L 3.55
V7: R 2.44, L 2.24, E 4.49, A 3.25, I 4.62, Q 3.02, K 3.79, N 2.83, F 2.51, Y 3.26, P 3.59, G 3.49, T 2.15, D 2.53, S 2.37, H 3.09, M 2.05, C 3.89, W 3.68
I5: Y 2.58, Q 3.61, A 2.92, G 2.54, K 1.73, H 4.38, E 4.16, F 3.14, R 2.19, S 2.36, L 2.94, D 3.24, N 2.34, M 2.67, P 3.34, T 3.88, W 2.49
N9: T 2.49, D 3.55, V 2.49, C 2.85, Y 2.44, H 2.15, G 2.98, R 2.94, K 2.02, L 3.14, W 3.74, M 3.79, E 2.96, F 2.06, I 2.82, A 2.89, P 3.7, S 2.31, Q 2.95
V11: A 4.26, F 4.1, E 3.64, S 3.97, T 3.11, M 2.77, Y 2.44, C 3.91, W 2.85, L 1.78, H 3.13, G 3.12, P 2.92, N 2.86, Q 1.83, R 2.22, D 2.52
P3: N 1.33, S 3.98, G 3.81, I 1.79, L 1.85, R 3.41, H 2.52, K 3.27, A 3.18, Q 2.68, C 2.32
L6: G 3.13, K 2.5, C 4.05, A 3.67, T 2.83, V 4.06, F 2.25, S 2.77, N 2.24, M 2.78, R 4.09, Y 2.26, I 2.59, Q 2.44, H 3.88, E 2.11, W 2.8, P 2.63
F13: M 2.42, Y 3.23, N 3.17, A 3.07, V 3.33, Q 2.96, H 2.11, R 2.3, G 3.8, K 3.49, E 2.27, S 2.83, L 4.27, P 3.22, T 2.99, C 3.25, D 2.85
I10: K 4.3, M 3.31, T 2.67, W 3.61, Q 2.94, N 2.65, D 2.47, E 3.64, C 2.67, F 3.5, V 2.92, R 2.42, Y 2.71, H 3.4, A 3.07, G 4.19, P 2.49
